In the DeepSol protein solubility set:

Experiment: soluble on expression in E. coli; label from the status in PepcDB or PDB records

| Sequence | soluble on expression in E. coli |
| --- | --- |
| MSLLSAFDTTAQRLGTASQNIEKDFWVCWTLDALFNGLSERGPRLLFKGGTSLSKGFGLINRFSEDIDVTVFRDDIGEPATIEELNVLSRNKRRARLDAIKEACQAYINGPLRAELTAILQKRLQAAGLSAGDARVEADGADSDGQTLLIWYPAATPRSDYVRAAIKIESGAKSALDPNSEVPIKAYVDDDLPALDLTVPAVRTVDPERTFWDKVVILHGLRRWFDKRGELRGGGQRVSRHYYDLHRLTAAPVGAAAIDDAALGADCVAHARMFFNRPDYDLATAAPGSFALAPHDEMIEQLRTDYRAMQGMIFGDPPSFEAVLKSINSLETQLNKDIANEGGPTREGHHHHHH | soluble |
| MGSDKIHHHHHHMAQIISINDNQRLQLEPLEVPSRLLLGPGPSNAHPSVLQAMNVSPVGHLDPAFLALMDEIQSLLRYVWQTENPLTIAVSGTGTAAMEATIANAVEPGDVVLIGVAGYFGNRLVDMAGRYGADVRTISKPWGEVFSLEELRTALETHRPAILALVHAETSTGARQPLEGVGELCREFGTLLLVDTVTSLGGVPIFLDAWGVDLAYSCSQKGLGCSPGASPFTMSSRAIEKLQRRRTKVANWYLDMNLLGKYWGSERVYHHTAPINLYYALREALRLIAQEGLANCWQRHQKNVEYLWERLEDIGLSLHVEKEYRLPTLTTVCIPDGVDGKAVARRLLNEHNIEVGGGLGELAGKVWRVGLMGFNSRKESVDQLIPALEQVLR | soluble |
| MAGVTKEQIAKAKEWDLLSYLQAYEPQELKKSGPREYCTRTHDSLKISNGKWCWNSRGIGGRTALDYLIKVRGMDFVGAVETLCGYCAPPPEKAPPIKEKQPKPFRLPQASRCASAVVGYLQDRGIDPELLGVCMEAGILYESCKYQNCVFVGRDTAGNARAASLRGTRDGFRMDVEGSDKRYSFCLPAGKADCPRLAVAESPIDALSLATLVKLSGGEPRDSHYLSLGGTGPRALIQFLHDHPHVTQVSLCLDNDKAGLEGMERLTQEIQNDAELSRRVKLVYPNPPKQGKDYNEFLCTHVKAVRTAQRQRDAAR | not soluble |
| MDEIWFAGIDLGGTTIKLAFINQYGEIQHKWEVPTDKTGDTITVTIAKTIDSKLDELQKPKHIIKYIGMGAPGPVDMAAGVVYETVNLGWKNYALKNHLETETGIPAVIENDANIAALGEMWKGAGDGAKDVILVTLGTGVGGGIIANGEILHGINGAGGEIGHICSIPEGGAPCNCGKTGCIETIASATGIVRIAKGKIANAKKTTRLKATEQLSARDVFEAAGENDEIALEVVDYVAKHLGLVLGNLASSLNPSKIVLGGGVSRAGELLRSKVEKTFRKCAFPRAAQAADISIAALGNDAGVIGGAWIAKNEWLKHQNCLEHHHHHH | soluble |
| MSIVSISYNQEEYIREALDGFAAQRTEFPVEVIIADDASTDATPRIIGEYAARYPQLFRPILRQTNIGVHANFKDVLSAARGEYLALCEGDDYWTDPLKLSKQVKYLDRHPETTVCFHPVRVIYEDGAKDSEFPPLSWRRDLSVDALLARNFIQTNSVVYRRQPSYDDIPANVMPIDWYLHVRHAVGGEIAMLPETMAVYRRHAHGIWHSAYTDRRKFWETRGHGMAATLEAMLDLVHGHREREAIVGEVSAWVLREIGKTPGRQGRALLLKSIADHPRMTMLSLQHRWAQTPWRRFKRRLSTELSSLAALAYATRRRALEGRDGGYRETTSPPTGRGRNVRGSHA | not soluble |
| MSLTILAIDTSNYTLGIALLREDTVIAEYITYLKKNHSVRAMPAVHSLLNDCDMAPQDLSKIVVAKGPGSYTGVRIGVTLAKTLAWSLDIPISAVSSLETLAANGRHFDGLISPIFDARRGQVYTGLYQYKNGLLEQVVPDQNVMLADWLEMLKEKDRPVLFLGHDTSLHKQMIEDVLGTKGFIGTAAQHNPRPSELAFLGKEKEAADVHGLVPDYLRLAEAEAKWIESQKEGHHHHHH | soluble |
| SSWAIHYIGKSVEQLTGYSKMDFITRKLTWSDLICPEDIPALNKVVQKATKNRTPYQVEYRIKKADGSTVFIQEQAHPVNDDKGNLAYVDGVFLDV | not soluble |
| MSLQNFQTEEISALIQNYDFDKALYKLKSHYSDMTFKEADSLLLANNIVYSENNETQQQQYLANLDTLLRDINNNHSEIASFTIYKNDMILVNTHNLYNHGFYKINSSLENIYFNLSEITDNDDQFAKYFKLLNLFFSTISRDAILSTSDKFNDIAIRKHEHSTNISTAFSQIFNECLKSKFEKNNVKTLFAELATYDIIEILNELIENHLKDTSYHLDNFVEAFTGNVMNSSIIIENLYHQIVVQNKLLQLVLLSFLFLDFDTNIFGDKIETLLDINYKQTFFMSFYEFDSKLTQSSMSMHTLQYPHGVQIFSSSELAGYLEFEIATLYSTPIVDSRLYIAFMQEYVLNWREKMEPPQKAINFFKYILEPLYRRNEIDEEFLLAMSMFNCGRFEQAYEFFTMNDYMLHLANKLPPFLKNVQQNSLWYELLKTFTESSTNAHYYLQLSLLFKTYNRLDLALKCVSKSVEYSMKHPSVEEGHHHHHH | soluble |
| MNVHQRYAMGDSLAAKHGLWSEEQIDAAARVRRIAEEQGLETIRFSFPDQHGILRGKTLVASEALNCLDNGATITTTMLAKDTSHKTVFPVFQAGGGFGMSEMQGGADVVMLPDPTTFRVLPWAPTTGWVLCDLYFADGRPVQFATRNIYRAALQKLAARGYDYKAGLEVEFHVFKVVDSKMRPEHAGQPGEPPEVSLLSHGYQYLTEQRYDQMEPVLELIRRDVVALGLPLRSIEVEFGPSQCEFTFQPTVGLLPADLMVLFRAAVKQICRRHGYHATFMCRPRIPNVVSSGWHLHQSVVARDGGRNAFMSDSDVLSDFGRHYLAGLMTHARAATVFTTPTINGYKRYRSYSLAPDRAIWGRDNRGVMLRVLGGAGDKATRIENRVGEPAANPYLYMASQILSGLDGVDRALDPGPSADTPYETKADLLPKSLREAIFALRDDPFFRTALGDEFVDYYTFIKNAEIERFQAEVTEWEQREYFEMF | soluble |
| MSRISVENVKHVAHLARLAITDQEAEKFQKQLDAIVTFAEQLNELDTTDVKPTTHVLTMKNVMREDVPEKGLPVEEVLKNAPDHKDNQIRVPAVLE | not soluble |
| MGNTAITRVQMEATKSVPVDHAKYMSGSGAPPPECPMHQKHGDAKSASAVPPHPKMQAASECPVQHDNSDVNPLNMMPPANQQPAADQPFPLPTDRQTSTIPKVTEDGSVQFWQYPSQQMFWNAMLRKGWRWKTEDVSQKDMGDIIRIHNANNEQAWQEVLKWEALHAKECGNPRLKSFGGKAKDFSPRARFRSWLGYELPFDRHDWIVDRCGKDVRYVIDYYDGGLVDKDYRFALLDVRPAMDSVDNVWDRMRVAYMRWKYELFEKFGSADGGKVTAGSDLEHHHHHH | not soluble |
| MAHHHHHHMPAAVTVHPLVLLSIVDHVTRVGLQTQQQRSPQKQGSAPDAAAASLPAPVFLSTAGLLMGTTRASGPVVTSTCSAESGGRGITTTLCASFEFPLRLQSTDGVAVAVAPSGDATFLQNILRDKTDWPAAQKHREQLSAVMPEMDVVGCYVVCASSRWTSTRHPRGGDDRDGSQLSVGGAVKKAKGEAMAGADHIAAIANCVQQQLRSTSILPSTATGFVLLVVYDKEVTSAAGDTDTAAPNPPHSPAAARLPFDCLYVPATTASDASPTEEVTVGPSDMEWIALANETMMPAYHQSSTTTCSAAVKPGLLRRLCSAAYLTSEGPDSREPANTQTSRMASSQNCRAAEELVGSLRLIMRVLVEMTASTLSPTGTAPDDVELLRTVATCLRNVPVSHPSQPPGEPRAPSELPTEEMLSAILALEVQCALHMRSLSKAQQQLLSSSRSAMTAFHSKACSPKAANPPPPLPSAEGWSTHERDKRSGVNTAVPGHGWV | not soluble |
| MPPKKAPAKKLHELAAEVRVGHKINDISKKTFIVGKQFATGGFGRIHTCTEEGKSQQMVMKIEPSTNGPLLTEVVVFNRILKKELIESYKKKKKISWIGLPYLIANGYFTYESEKMRYMIIPKYATSLEAVRETNGGTLAMKDSLTVASCILDALEYLHESDYAHADVKAANILLEKQGVYSTAVLVDFGLAHRTTNNVDKPDKKRAHNGTCIFTSTDAHRGNNPSFRGDIEILAYNLMMWATGTLPWMALESSPEKVFDAKQKFIAGLPGTLQNVLKNESSAVVGCIASMFDISMKTNYTDKVDMGKLKKLVTDAIQKTSSDGKKTPTRQKKLAEEDKNAVTPKRSTRRLAVKEESDNKDNDEVEVKPEKKATPRKRTTRKAVEVNNDSDDNEEQYENPKSKSSRTQTKSKRAKEEDVDDEEEIIIPKSSRSRSKVQLSGEGSDVTTPSSAASTSRSRSIRLGLTSSTASSNKVAKKIEQKYKRLSMNKSSLVPVTISVASDKSPTTSTPSSSSGLRSKRKSSEDVGEGITLKTQVLITPAIKKAKTKSGISSATKASPTELRRVPGVRNFPKGRRSMIIKETSAKYKERLASRQTKPTFDDSSCSSEV | not soluble |
| MQYCELDLSGQWLDTVYCEENFSDFVFIKFLNPSQFEEKIYCYTLHITKRTLENKRLLLYYEDEFKKHGHDINELVGDGIILRSCWNPRQ | soluble |
| LLKEYKNAWDKYDDKQLKEVFALGDRFKNFISNCKTERECVTELIKTAEKSGYRNIEDILAKGETLKEGDKVYANNRGKGLIMFLIGKEPLYTGFKILGAHIDSPRLDLKQNPLYEDTDLAMLETHYYGGIKKYQWVTLPLAIHGVIVKKDGTIVNVCVGEDDNDPVFGVSDILVHLASEQLEKKASKVIEGEDLNILIGSIPLKDGEEKQKVKHNIMKILNEKYDISEEDFVSAELEIVPAGKARDYGFDRSMVMGYGQDDRICAYTSFEAMLEMKNAKKTCITILVDKEEVGSIGATGMQSKFFENTVADIMSLCGDYDELKLRKALYNSEMLSSDVSAAFDPNYPNVMEKRNSAYLGKGIVFNKYTGSRGKSGCNDANPEYIAELRRILSKESVNWQTAELGKVDQGGGGTIAYILAEYGMQVIDCGVALLNMHAPWEISSKADIYETKNGYSAFLNN | soluble |
| REQGFMFKKELGIESMEDLIEKIRYYKIINRNKGSGTRILFDKFLKENDIDKNSINGYDIEAKTHSAVGAAVSMGKAQIGLGISTISDHYDLEFIPIADENYDLLIPKEKLYDEDIIKFIETLKNEELPFKKSKDTGKIIYGC | not soluble |
| MSWWKRIFSRSESSTTESNSASSLPAADLDDDLLVEVKNLVAITGPKMPYELARLLKISHARATRLAAAANAQNPTPSRARTSDAQAQQPAAASPKPPAEPVAAEPKKKRAKKATPVEAGLPPLTGKITGGHACAFDVVGESYYQPALRRLRNGRHMATDNDFVADIVAEPDNPHDPNACAVYIEGFKVGYLPRDAAADFQQQVADMGVTGTWRLQTKAKLSGGWGDRPMVGVLLSLPKSLEHHHHHH | not soluble |
| MAHHHHHHMDPGAVMPGIVQMSKDNFDQLVGKEKAVLVEFYAPWCGHCKSMAPEYAALGAAYEASTNAKDLLLVGKVDATQDSDLGKRFGVTGFPTILYFAPGSLEPEKYKGGRTAEDFAKYLSSAIAGLRLTIPIEPQFAMELVHTNFDAVVKDPSKAVLVMFYAPWCGHCKALKPIYNTLAKVFSNDKDVVIARINADDAANRKIATEYAVAGFPTVYFFPKGADEKPVEYKNGRNLEDFLTFVNENAGKHRLANGDFSWECGVIAELAEAVALVATSSGESSKAAVEAVKAAAAKLAESEDAAYYIKAAERIAAKGPAYVESESARLKRTLGGSVAGDRRDNMVRRLNILTSIQKHMK | not soluble |
| MGHHHHHHSHMQEEEEESWSTSSDLTISISEDDLILESPEPQPNPGGKMEGEDGIEALKLIHAEQERVALSTEKNCILQTLSSPDSEKESSTNAPTREPGQTPDSDVPRAQVGQHVATLKEHDNSVKEEATALLRKALTEECGRRSAIHSSESSCSLPSILNDNSGIKEAKPAVWLNSVPTREQEVSSGCGDKSKKENVAADIPITETEAYQLLKKATLQDNTNQTENRFQKTDASVSHLSGLNIGSGAFETKTANKIASEASFSSSEGSPLSRHENKKKPVINLKSNALWDESDDSNSEIEAALRPRNHNTDDSDDFYD | soluble |
